Laboratory results from paper PMC2112147.

What was measured:
[1] = target: rabbit skeletal muscle actin (rabbit) (UniProt P68135); assay: co-sedimentation; conditions: scale: G-actin units per actinogelin dimeric unit
[2] = target: actinogelin (mouse (endogenous in Ehrlich tumor cells)) (UniProt Q7TPR4); assay: AUC
[3] = target: actinogelin (mouse (endogenous in Ehrlich tumor cells)) (UniProt Q7TPR4); assay: cross-linking

Sequence of actinogelin (Q7TPR4 whole entry): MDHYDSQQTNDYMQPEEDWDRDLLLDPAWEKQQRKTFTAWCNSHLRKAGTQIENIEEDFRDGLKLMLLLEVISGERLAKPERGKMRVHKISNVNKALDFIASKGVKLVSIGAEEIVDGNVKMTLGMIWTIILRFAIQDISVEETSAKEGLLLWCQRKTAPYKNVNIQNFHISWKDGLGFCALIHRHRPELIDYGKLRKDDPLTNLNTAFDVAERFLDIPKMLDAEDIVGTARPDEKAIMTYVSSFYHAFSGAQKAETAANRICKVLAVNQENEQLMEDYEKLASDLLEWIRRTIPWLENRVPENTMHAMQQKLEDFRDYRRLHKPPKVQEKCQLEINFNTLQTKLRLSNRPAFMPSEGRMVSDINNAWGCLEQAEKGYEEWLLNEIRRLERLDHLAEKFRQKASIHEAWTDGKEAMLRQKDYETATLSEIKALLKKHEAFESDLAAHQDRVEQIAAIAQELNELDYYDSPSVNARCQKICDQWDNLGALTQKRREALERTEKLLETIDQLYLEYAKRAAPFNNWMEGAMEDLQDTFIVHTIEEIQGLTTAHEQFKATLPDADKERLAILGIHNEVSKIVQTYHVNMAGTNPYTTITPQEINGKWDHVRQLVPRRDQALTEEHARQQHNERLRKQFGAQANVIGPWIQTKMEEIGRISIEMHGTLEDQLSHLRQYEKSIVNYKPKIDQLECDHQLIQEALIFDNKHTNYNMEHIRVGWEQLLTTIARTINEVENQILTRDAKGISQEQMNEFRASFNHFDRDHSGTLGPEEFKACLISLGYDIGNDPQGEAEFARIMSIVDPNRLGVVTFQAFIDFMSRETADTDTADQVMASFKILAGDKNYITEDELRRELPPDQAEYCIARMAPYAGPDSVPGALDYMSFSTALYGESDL

Question: Which stoichiometry N [1] does the source give for “actinogelin (from UniProt Q7TPR4 1-892) (natural protein)” here?
Answer: The stoichiometry N was 10 to 12.

Question: And the stoichiometry N [2]?
Answer: The stoichiometry N was 2 subunits.

Question: What about the stoichiometry N [3] of the same substance?
Answer: Its stoichiometry N is 2 subunits.
